Holding throughout (assay): Biacore SPR; receptor-Fc captured by anti-Fc antibody, ligand injected
One test deals with T1, Activin A (UniProt P08476 311-426).
T1 construct: also called βAβA
T1 sequence (looked up): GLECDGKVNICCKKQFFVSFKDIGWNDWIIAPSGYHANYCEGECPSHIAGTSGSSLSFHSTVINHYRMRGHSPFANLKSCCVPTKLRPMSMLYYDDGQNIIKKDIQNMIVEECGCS
As for the experimental part: (§1) Ligands were injected and allowed to flow over the captured receptor protein.

In another test the target is T2, Activin B (UniProt P09529 293-407).
T2 construct: also called βBβB
T2 sequence (looked up): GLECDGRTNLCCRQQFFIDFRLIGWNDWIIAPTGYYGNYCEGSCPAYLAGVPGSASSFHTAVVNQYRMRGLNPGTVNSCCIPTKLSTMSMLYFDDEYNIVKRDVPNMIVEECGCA
How it is done:
as §1

Another test has as its target T3, Activin AB (UniProt P08476 311-426; P09529 293-407).
T3 construct: also called βAβB
T3 sequence (looked up) 1: T1 sequence (looked up)
T3 sequence (looked up) 2: T2 sequence (looked up)
As for the experimental part:
as §1

In the next test the target is T4, Activin AC (UniProt P08476 311-426; P55103 237-352).
T4 sequence (looked up) 1: T1 sequence (looked up)
T4 sequence (looked up) 2: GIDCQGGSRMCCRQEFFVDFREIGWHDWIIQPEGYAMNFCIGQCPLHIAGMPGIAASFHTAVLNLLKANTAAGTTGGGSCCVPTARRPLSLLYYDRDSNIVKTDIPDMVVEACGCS
How it is done: as §1

A further test addresses BMP2 (UniProt P12643 283-396). As for the experimental part: as §1
The target in a further test is T5, BMP4 (UniProt P12644 293-408).
T5 sequence (looked up): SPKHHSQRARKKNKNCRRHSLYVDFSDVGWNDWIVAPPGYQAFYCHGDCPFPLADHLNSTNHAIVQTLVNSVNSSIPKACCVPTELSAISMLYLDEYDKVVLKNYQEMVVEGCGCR
How it is done:
as §1

The next test has as its target T6, BMP5 (UniProt P22003 317-454, limits assumed).
T6 sequence (looked up): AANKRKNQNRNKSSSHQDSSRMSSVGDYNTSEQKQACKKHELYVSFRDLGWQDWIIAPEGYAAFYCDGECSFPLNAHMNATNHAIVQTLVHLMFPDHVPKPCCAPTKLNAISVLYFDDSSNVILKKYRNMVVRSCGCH
As for the experimental part:
as §1

For the next test, the target named is T7, BMP6 (UniProt P22004 382-513, limits assumed).
T7 sequence (looked up): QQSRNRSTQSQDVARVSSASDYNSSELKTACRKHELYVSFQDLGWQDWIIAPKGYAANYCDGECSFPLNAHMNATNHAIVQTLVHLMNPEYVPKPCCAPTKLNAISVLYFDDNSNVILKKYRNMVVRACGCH
As for the experimental part: as §1

In the next test the target is T8, BMP7 (UniProt P18075 293-431).
T8 construct: also called osteogenic protein-1; OP-1
T8 sequence (looked up): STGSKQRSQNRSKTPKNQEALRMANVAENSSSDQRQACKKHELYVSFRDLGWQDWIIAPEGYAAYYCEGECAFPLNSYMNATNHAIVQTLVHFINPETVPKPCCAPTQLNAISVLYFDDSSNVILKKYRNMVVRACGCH
As for the experimental part:
as §1

For a further test, the target named is T9, BMP10 (UniProt O95393 317-424).
T9 sequence (looked up): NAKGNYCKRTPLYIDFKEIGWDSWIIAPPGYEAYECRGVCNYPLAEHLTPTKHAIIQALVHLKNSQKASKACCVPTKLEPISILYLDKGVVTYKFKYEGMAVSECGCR
How it is done:
as §1

The next test concerns the target T10, GDF5 (UniProt P43026 382-501, limits assumed).
T10 construct: also called BMP14
T10 sequence (looked up): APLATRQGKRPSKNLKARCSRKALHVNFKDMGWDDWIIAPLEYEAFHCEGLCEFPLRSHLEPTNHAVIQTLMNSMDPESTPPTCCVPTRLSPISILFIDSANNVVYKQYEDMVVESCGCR
As for the experimental part: as §1

The next test has as its target T11, GDF6 (UniProt Q6KF10 336-455, limits assumed).
T11 construct: also called BMP13
T11 sequence (looked up): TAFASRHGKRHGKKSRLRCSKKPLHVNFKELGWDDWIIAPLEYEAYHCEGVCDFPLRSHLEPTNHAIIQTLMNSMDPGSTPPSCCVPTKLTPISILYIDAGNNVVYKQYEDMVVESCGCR
How it is done: as §1

In another test the target is T12, GDF7 (UniProt Q7Z4P5 322-450, limits assumed).
T12 construct: also called BMP12
T12 sequence (looked up): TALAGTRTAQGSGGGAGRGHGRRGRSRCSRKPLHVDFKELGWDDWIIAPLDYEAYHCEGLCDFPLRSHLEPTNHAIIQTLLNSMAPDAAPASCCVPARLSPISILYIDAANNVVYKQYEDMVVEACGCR
As for the experimental part:
as §1

Another test deals with T13, GDF8 (UniProt O14793 267-375).
T13 construct: also called myostatin; growth and differentiation factor-8
T13 sequence (looked up): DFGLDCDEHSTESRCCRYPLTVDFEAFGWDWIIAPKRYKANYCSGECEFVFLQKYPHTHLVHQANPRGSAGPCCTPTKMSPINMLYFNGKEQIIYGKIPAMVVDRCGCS
How it is done:
as §1

The target of another test is T14, GDF11 (UniProt O95390 299-407).
T14 construct: also called BMP11
T14 sequence (looked up): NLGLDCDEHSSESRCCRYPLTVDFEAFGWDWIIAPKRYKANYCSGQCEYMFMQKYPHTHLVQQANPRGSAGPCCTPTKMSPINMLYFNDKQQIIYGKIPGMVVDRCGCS
How it is done: as §1

BMP2, sequence (P12643 283-396 limits assumed): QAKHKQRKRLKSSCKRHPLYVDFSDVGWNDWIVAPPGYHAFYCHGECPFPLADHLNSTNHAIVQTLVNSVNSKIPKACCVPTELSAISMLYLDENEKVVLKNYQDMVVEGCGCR

B1: single-arm ALK3-Fc heterodimeric complex (Fc fusion)
chain 1: GAQNLDSMLHGTGMKSDSDQKKSENGVTLAPEDTLPFLKCYCSGHCPDDAINNTCITNGHCFAIIEEDDQGETTLASGCMKYEGSDFQCKDSPKAQLRRTIECCRTNLCNQYLQPTLPPVVIGPFFDGSIRTGGGTHTCPPCPAPELLGGPSVFLFPPKPKDTLMISRTPEVTCVVVDVSHEDPEVKFNWYVDGVEVHNAKTKPREEQYNSTYRVVSVLTVLHQDWLNGKEYKCKVSNKALPAPIEKTISKAKGQPREPQVYTLPPSREEMTKNQVSLTCLVKGFYPSDIAVEWESNGQPENNYDTTPPVLDSDGSFFLYSDLTVDKSRWQQGNVFSCSVMHEALHNHYTQKSLSLSPG
chain 2: SNTKVDKRVTGGGTHTCPPCPAPELLGGPSVFLFPPKPKDTLMISRTPEVTCVVVDVSHEDPEVKFNWYVDGVEVHNAKTKPREEQYNSTYRVVSVLTVLHQDWLNGKEYKCKVSNKALPAPIEKTISKAKGQPREPQVYTLPPSRKEMTKNQVSLTCLVKGFYPSDIAVEWESNGQPENNYKTTPPVLKSDGSFFLYSKLTVDKSRWQQGNVFSCSVMHEALHNHYTQKSLSLSPGK
notes: also called ALK3-Fc:Fc heterodimer
Regarding B1, the binding result with Activin A, with Activin B, with Activin AB, with Activin AC, in the test with BMP6 and with BMP7 was “no binding” each time. In addition, the binding result in the test with BMP10, in the test with GDF5, with GDF6, in the test with GDF8 and with GDF11 was “no binding” each time. In addition, the Kd with BMP2 was determined as 0.31 nM; with BMP4, 0.093 nM; in the test with BMP5 it was 45 nM; in the test with GDF7, 22 nM. The koff with BMP2 worked out at 0.00025 s⁻¹; with BMP4, 4.6e-05 s⁻¹; in the test with BMP5, 0.0053 s⁻¹; with GDF7, 0.01 s⁻¹. For the same molecule, the kon worked out at 790000 M⁻¹ s⁻¹ in the test with BMP2, 490000 M⁻¹ s⁻¹ with BMP4, 120000 M⁻¹ s⁻¹ with BMP5 and 460000 M⁻¹ s⁻¹ with GDF7.

Broadly, the Kd is the free concentration of one partner at which half of the binding sites on the other are occupied at equilibrium, for simple one-to-one binding. A low value points to tighter binding. A word on the koff: it is a measure of how fast the partners let go of each other. Broadly, the kon is the second-order rate constant of association. Low readings indicate slower complex formation, high ones faster complex formation.
